The target in data set [1] is T1, HPV-11 E2 (full length) (Human papillomavirus type 11, UniProt P04015 1-367). As to the kind of experiment: EMSA; EMSA: 10 mM HEPES pH 7.9, 50 mM NaCl, 4 mM MgCl2, 10% glycerol, 5 mM DTT, 0.2 mM EDTA, 0.1 mg/mL BSA, 10 ng/uL poly(dI-dC), 10 min 30 C. Particulars: protein: recombinant; tags: N-terminal His (pET28a); chain copies: 2; label: 32P.
The target in data set [2] is T1, HPV-11 E2 (full length). The experiment in a line: EMSA; single complex C1; EMSA: 10 mM HEPES pH 7.9, 50 mM NaCl, 4 mM MgCl2, 10% glycerol, 5 mM DTT, 0.2 mM EDTA, 0.1 mg/mL BSA, 10 ng/uL poly(dI-dC), 10 min 30 C. Particulars: protein: recombinant; tags: N-terminal His (pET28a); chain copies: 2; label: 32P. On the technique in general: A gel shift assay detects complexes by their altered migration in electrophoresis.

Data set [3] deals with T1, HPV-11 E2 (full length). The experiment in a line: EMSA; C1, C2 and C3 complexes; EMSA: 10 mM HEPES pH 7.9, 50 mM NaCl, 4 mM MgCl2, 10% glycerol, 5 mM DTT, 0.2 mM EDTA, 0.1 mg/mL BSA, 10 ng/uL poly(dI-dC), 10 min 30 C. As to conditions: protein: recombinant; tags: N-terminal His (pET28a); chain copies: 2; label: 32P.
Data set [4] addresses T1, HPV-11 E2 (full length). The experiment in a line: EMSA; apparent Kd; EMSA: 10 mM HEPES pH 7.9, 50 mM NaCl, 4 mM MgCl2, 10% glycerol, 5 mM DTT, 0.2 mM EDTA, 0.1 mg/mL BSA, 10 ng/uL poly(dI-dC), 10 min 30 C. Particulars: protein: recombinant; tags: N-terminal His (pET28a); chain copies: 2; label: 32P.
Data set [5] addresses T1, HPV-11 E2 (full length). The experiment in a line: EMSA; no complex at 80 nM E2; EMSA: 10 mM HEPES pH 7.9, 50 mM NaCl, 4 mM MgCl2, 10% glycerol, 5 mM DTT, 0.2 mM EDTA, 0.1 mg/mL BSA, 10 ng/uL poly(dI-dC), 10 min 30 C. As to conditions: protein: recombinant; tags: N-terminal His (pET28a); chain copies: 2; label: 32P.
For data set [6], the target named is T1, HPV-11 E2 (full length). As to the kind of experiment: EMSA; spacer experiment WT (TTTT); EMSA: 10 mM HEPES pH 7.9, 50 mM NaCl, 4 mM MgCl2, 10% glycerol, 5 mM DTT, 0.2 mM EDTA, 0.1 mg/mL BSA, 10 ng/uL poly(dI-dC), 10 min 30 C. Particulars: protein: recombinant; tags: N-terminal His (pET28a); chain copies: 2; label: 32P.
Data set [7] concerns the target T1, HPV-11 E2 (full length). As to the kind of experiment: competition; unlabeled competitor vs 32P-BS1; EMSA: 10 mM HEPES pH 7.9, 50 mM NaCl, 4 mM MgCl2, 10% glycerol, 5 mM DTT, 0.2 mM EDTA, 0.1 mg/mL BSA, 10 ng/uL poly(dI-dC), 10 min 30 C. As to conditions: protein: recombinant; tags: N-terminal His (pET28a); chain copies: 2; label: 32P.
The target of data set [8] is T1, HPV-11 E2 (full length). As to the kind of experiment: EMSA; 0 C; EMSA: 10 mM HEPES pH 7.9, 50 mM NaCl, 4 mM MgCl2, 10% glycerol, 5 mM DTT, 0.2 mM EDTA, 0.1 mg/mL BSA, 10 ng/uL poly(dI-dC), 10 min 30 C. As to conditions: protein: recombinant; tags: N-terminal His (pET28a); chain copies: 2; label: 32P.
For data set [9], the target named is T1, HPV-11 E2 (full length). As to the kind of experiment: EMSA; 10 C; EMSA: 10 mM HEPES pH 7.9, 50 mM NaCl, 4 mM MgCl2, 10% glycerol, 5 mM DTT, 0.2 mM EDTA, 0.1 mg/mL BSA, 10 ng/uL poly(dI-dC), 10 min 30 C. As to conditions: protein: recombinant; tags: N-terminal His (pET28a); chain copies: 2; label: 32P.
Data set [10] has as its target T1, HPV-11 E2 (full length). As to the kind of experiment: EMSA; 20 C; EMSA: 10 mM HEPES pH 7.9, 50 mM NaCl, 4 mM MgCl2, 10% glycerol, 5 mM DTT, 0.2 mM EDTA, 0.1 mg/mL BSA, 10 ng/uL poly(dI-dC), 10 min 30 C. Particulars: protein: recombinant; tags: N-terminal His (pET28a); chain copies: 2; label: 32P.
Data set [11] has as its target T1, HPV-11 E2 (full length). The experiment in a line: EMSA; 30 C; EMSA: 10 mM HEPES pH 7.9, 50 mM NaCl, 4 mM MgCl2, 10% glycerol, 5 mM DTT, 0.2 mM EDTA, 0.1 mg/mL BSA, 10 ng/uL poly(dI-dC), 10 min 30 C. Particulars: protein: recombinant; tags: N-terminal His (pET28a); chain copies: 2; label: 32P.
Data set [12] has as its target T1, HPV-11 E2 (full length). The experiment in a line: EMSA; 35 C; EMSA: 10 mM HEPES pH 7.9, 50 mM NaCl, 4 mM MgCl2, 10% glycerol, 5 mM DTT, 0.2 mM EDTA, 0.1 mg/mL BSA, 10 ng/uL poly(dI-dC), 10 min 30 C. Particulars: protein: recombinant; tags: N-terminal His (pET28a); chain copies: 2; label: 32P.
Data set [13] deals with T1, HPV-11 E2 (full length). As to the kind of experiment: EMSA; flank experiment WT; EMSA: 10 mM HEPES pH 7.9, 50 mM NaCl, 4 mM MgCl2, 10% glycerol, 5 mM DTT, 0.2 mM EDTA, 0.1 mg/mL BSA, 10 ng/uL poly(dI-dC), 10 min 30 C. As to conditions: protein: recombinant; tags: N-terminal His (pET28a); chain copies: 2; label: 32P.
Data set [14] concerns the target T1, HPV-11 E2 (full length). The experiment in a line: EMSA; affinity similar to BS1+2; C1, C2 and C3; EMSA: 10 mM HEPES pH 7.9, 50 mM NaCl, 4 mM MgCl2, 10% glycerol, 5 mM DTT, 0.2 mM EDTA, 0.1 mg/mL BSA, 10 ng/uL poly(dI-dC), 10 min 30 C. As to conditions: protein: recombinant; tags: N-terminal His (pET28a); chain copies: 2; label: 32P.
Data set [15] has as its target T2, recombinant full-length HPV type 11 E2 protein (human papillomavirus type 11), P04015.
T2 chain: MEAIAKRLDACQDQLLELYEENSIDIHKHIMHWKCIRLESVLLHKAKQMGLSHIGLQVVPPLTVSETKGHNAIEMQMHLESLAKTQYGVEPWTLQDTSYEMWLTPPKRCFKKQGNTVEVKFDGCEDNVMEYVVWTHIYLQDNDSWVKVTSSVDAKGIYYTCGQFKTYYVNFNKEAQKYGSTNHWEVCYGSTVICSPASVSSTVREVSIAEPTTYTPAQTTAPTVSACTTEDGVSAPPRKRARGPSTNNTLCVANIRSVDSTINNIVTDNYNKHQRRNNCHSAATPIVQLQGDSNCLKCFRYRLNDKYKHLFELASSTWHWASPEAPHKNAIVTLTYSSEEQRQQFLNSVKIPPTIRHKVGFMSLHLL
As to the kind of experiment: dynamic light scattering; purified E2 in solution at low (≤0.1 mg/mL) protein concentration; solvent set as 10% glycerol; three separate measurements; monomer to dimer. Particulars: remark: other sources report otherwise.

By stoichiometry N is commonly meant a count of units in the complex or per binding partner.

B1: BS1 3' mutant (dsDNA)
DNA 1: GGTTCAACCGAAAACGGTTACCCA
DNA 2: TGGGTAACCGTTTTCGGTTGAACC
Turning to B1, the Kd in data set [1] turned out to be 7.6 ± 0.6 nM.

B2: BS1 (50 bp) (dsDNA)
DNA 1: GGAGGGATTGAAAACTTTTCAACCGAAAACGGTTATATATAAACCAGCCC
DNA 2: GGGCTGGTTTATATATAACCGTTTTCGGTTGAAAAGTTTTCAATCCCTCC
In the case of B2, in data set [2], the Kd was found to be 5.3 ± 0.6 nM.

B3: BS1+2 (50 bp) (dsDNA)
DNA 1: GGCGGGACCGAAAACGGTTCAACCGAAAACGGTTATATATAAACCAGCCC
DNA 2: GGGCTGGTTTATATATAACCGTTTTCGGTTGAACCGTTTTCGGTCCCGCC
In the case of B3, the Kd in [3] came out at 4.2 ± 0.3 nM.

B4: BS3 (dsDNA)
DNA 1: CCTGCAACCGGTTTCGGTTACCCA
DNA 2: TGGGTAACCGAAACCGGTTGCAGG
As to B4, the Kd in data set [4] turned out to be 10.2 ± 1.7 nM.

B5: BS1 5' mutant (dsDNA)
DNA 1: CCTGCAACCGAAAACGGTTATATG
DNA 2: CATATAACCGTTTTCGGTTGCAGG
As to B5, the Kd in data set [1] is 6.4 ± 0.6 nM.

B6: Non-specific (dsDNA)
DNA 1: TGGCGGACCCCACCCAGCCCCACGCGCA
DNA 2: TGCGCGTGGGGCTGGGTGGGGTCCGCCA
Regarding B6, in [5], the binding result is “no binding”.

B7: BS4 (dsDNA)
DNA 1: CTTGCAACCGTTTTCGGTTGCCCT
DNA 2: AGGGCAACCGAAAACGGTTGCAAG
On to B7, for which the Kd in data set [4] amounted to 4.8 ± 0.7 nM; in [6], 4.4 ± 0.4 nM; in data set [7], 4.6 ± 0.4 nM.

B8: BS1 (dsDNA)
DNA 1: GGTTCAACCGAAAACGGTTATATG
DNA 2: CATATAACCGTTTTCGGTTGAACC
With B8, the Kd was 7.3 ± 0.7 nM in data set [8]; 5.5 ± 1.5 nM in data set [9]; 6.2 ± 1.4 nM in [10]; 5.3 ± 0.4 nM in [11]; 5.7 ± 1.1 nM in data set [12]; 6.2 ± 0.9 nM in data set [4]. For the same molecule, the Kd in data set [13] was 6 ± 0.7 nM; in data set [7], 6.2 ± 1.4 nM.

B9: BS2 (dsDNA)
DNA 1: GGAGGGACCGAAAACGGTTCAACC
DNA 2: GGTTGAACCGTTTTCGGTCCCTCC
On to B9, for which the Kd in data set [4] came out at 7.8 ± 0.7 nM; in data set [7] it was 6 ± 0.6 nM.

B10: BS1 5'+3' mutant (dsDNA)
DNA 1: CCTGCAACCGAAAACGGTTACCCA
DNA 2: TGGGTAACCGTTTTCGGTTGCAGG
Regarding B10, the Kd in data set [1] came out at 7.7 ± 1.7 nM.

B11: BS1+2+E1BS (124 bp) (dsDNA)
DNA 1: GTAACCCACACCCTACATATTTCCTTCTTATACTTAATAACAATCTTATTTAAAAAAGAGGAGGGACCGAAAACGGTTCAACCGAAAACGGTTATATATAAACCAGCCCAAAAAATTAGCAGA
DNA 2: TCTGCTAATTTTTTGGGCTGGTTTATATATAACCGTTTTCGGTTGAACCGTTTTCGGTCCCTCCTCTTTTTTAAATAAGATTGTTATTAAGTATAAGAAGGAAATATGTAGGGTGTGGGTTAC
Turning to B11, the binding result in [14] is recorded as “binds”.

B12: recombinant full-length HPV type 11 E2 protein, P04015 1-367 (natural protein)
chain: MEAIAKRLDACQDQLLELYEENSIDIHKHIMHWKCIRLESVLLHKAKQMGLSHIGLQVVPPLTVSETKGHNAIEMQMHLESLAKTQYGVEPWTLQDTSYEMWLTPPKRCFKKQGNTVEVKFDGCEDNVMEYVVWTHIYLQDNDSWVKVTSSVDAKGIYYTCGQFKTYYVNFNKEAQKYGSTNHWEVCYGSTVICSPASVSSTVREVSIAEPTTYTPAQTTAPTVSACTTEDGVSAPPRKRARGPSTNNTLCVANIRSVDSTINNIVTDNYNKHQRRNNCHSAATPIVQLQGDSNCLKCFRYRLNDKYKHLFELASSTWHWASPEAPHKNAIVTLTYSSEEQRQQFLNSVKIPPTIRHKVGFMSLHLL
Regarding B12, the stoichiometry N in data set [15] came to 2.

B13: BS4 with GTTT spacer (dsDNA)
DNA 1: CTTGCAACCGGTTTCGGTTGCCCT
DNA 2: AGGGCAACCGAAACCGGTTGCAAG
Consider B13, for which the Kd in [1] is 6.4 ± 0.6 nM.
